Data published in patent US20160297857A1.

B1: PA1b polypeptide of Pisum sativum (peptide)
peptide: ASCNGVCSPFEMPPCGTSACRCIPVGLVIGYCRNPSG
B2: AS40 (peptide)
peptide: AKCGEACDTQFNFCNAGDGCRCFITDAYLTLPGFCAQLST
B3: EG41 (peptide)
peptide: EFCSSVGSFCSPFNTNPCGYLGNCRCVPYYLYGGTCENPFG
B4: AS37 (peptide)
peptide: ADCSGICSPFEMPPCRSSDCRCIPIALIGGFCINPIS
B5: DS37 (peptide)
peptide: DECWGPCSVLQTPPCPLSKCYCIPLFLVVGYCSHASS
B6: AG41 (peptide)
peptide: ASCPNVGAVCSPFETKPCGNVKDCRCLPWGLFFGTCINPTG

Biological target: PA1b-binding site
Assay: ligand binding assay with 125I-labeled toxin

How did the Ki turn out when B1 was run?
The Ki was 17 nM.

Which Ki does the source give for B2 here?
The Ki was 10.3 nM.

B3 was tested. Which Ki did it give?
Its Ki is 72.8 nM.

B4 was tested. Which Ki did it give?
Its Ki is 15 nM.

Which Ki does the source give for B5 here?
Its Ki is 694 nM.

Which Ki does the source give for B6 here?
The Ki was 1.3 nM.
